Experimental data: the supplement of paper PMC9112550, “Optimization of the antimicrobial peptide Bac7 by deep mutational scanning” (BMC Biology, 2022)

What follows are sequences tested on Escherichia coli TOP10 (assay: shrunken log2 fold change of peptide-encoding DNA abundance (4.5 h post-induction vs induction); higher = less antimicrobial activity (less host growth inhibition)). Details: time post-induction: 4.5 h; library: site-saturation at positions 5, 18, 19, 20.
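Also: peptides expressed intracellularly from a pBAD plasmid library in pooled LB shake-flask culture, induced with 0.3% L-arabinose, DNA abundance read by NGS, three biological replicates, DESeq2 with apeglm shrinkage.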

Sequence | shrunken log2 fold change
RRIRWRPPRLPRPRPRPSDNPRP | -0.14
RRIRPRPPRLPRPRPRPAWNPRP | 0.396
RRIRLRPPRLPRPRPRPLAAPRP | 0.345
RRIRCRPPRLPRPRPRPVEAPRP | 0.338
RRIRFRPPRLPRPRPRPSGYPRP | 0.00547
RRIRKRPPRLPRPRPRPYWKPRP | 0.0282
RRIRLRPPRLPRPRPRPCQLPRP | -0.8
RRIRNRPPRLPRPRPRPNCSPRP | 7.72e-05
RRIRSRPPRLPRPRPRPNIKPRP | -0.491
RRIRQRPPRLPRPRPRPPVKPRP | 0.0851
RRIRYRPPRLPRPRPRPWMPPRP | -0.417
RRIRSRPPRLPRPRPRPLKSPRP | 0.0254
RRIRSRPPRLPRPRPRPFGTPRP | 0.0399
RRIRSRPPRLPRPRPRPSEAPRP | 0.121
RRIRKRPPRLPRPRPRPYNAPRP | -0.171
RRIRSRPPRLPRPRPRPLDDPRP | -0.0921
RRIRSRPPRLPRPRPRPTMKPRP | -0.128
RRIRKRPPRLPRPRPRPNSTPRP | -0.0291
RRIRGRPPRLPRPRPRPYPKPRP | 0.161
RRIRHRPPRLPRPRPRPTEAPRP | -0.00626
RRIRCRPPRLPRPRPRPMNVPRP | -0.00117
RRIRHRPPRLPRPRPRPAINPRP | -0.221
RRIRSRPPRLPRPRPRPMIEPRP | -0.0828
RRIRTRPPRLPRPRPRPVARPRP | 2.14
RRIRWRPPRLPRPRPRPNQLPRP | -0.208

Sequence | shrunken log2 fold change
RRIRIRPPRLPRPRPRPWRGPRP | -0.129
RRIRTRPPRLPRPRPRPPDKPRP | -0.146
RRIRFRPPRLPRPRPRPFSRPRP | 0.184
RRIRFRPPRLPRPRPRPRLEPRP | 0.392
RRIRMRPPRLPRPRPRPFYEPRP | 0.027
RRIRKRPPRLPRPRPRPIIDPRP | -0.139
RRIRYRPPRLPRPRPRPFDSPRP | -0.0136
RRIRIRPPRLPRPRPRPHKFPRP | -0.291
RRIRTRPPRLPRPRPRPRLSPRP | -0.0634
RRIRIRPPRLPRPRPRPYDVPRP | -0.101
RRIRRRPPRLPRPRPRPTAFPRP | 1.31
RRIRSRPPRLPRPRPRPPGTPRP | 0.396
RRIRWRPPRLPRPRPRPTQIPRP | 0.132
RRIRARPPRLPRPRPRPQTLPRP | 0.0847
RRIRHRPPRLPRPRPRPHTYPRP | -0.79
RRIRSRPPRLPRPRPRPNNRPRP | -0.475
RRIRFRPPRLPRPRPRPEIAPRP | -0.0213
RRIRHRPPRLPRPRPRPMRYPRP | -0.0889
RRIRRRPPRLPRPRPRPQFWPRP | 0.172
RRIRIRPPRLPRPRPRPGLDPRP | 0.0575
RRIRCRPPRLPRPRPRPPQQPRP | 0.549
RRIRSRPPRLPRPRPRPECSPRP | 0.201
RRIRHRPPRLPRPRPRPICHPRP | -0.265
RRIRQRPPRLPRPRPRPDCAPRP | 0.0476
RRIRQRPPRLPRPRPRPHWHPRP | -0.465

Sequence | shrunken log2 fold change
RRIRARPPRLPRPRPRPWCDPRP | 0.00114
RRIRTRPPRLPRPRPRPYFLPRP | -1.18
RRIRHRPPRLPRPRPRPLVPPRP | -0.0575
RRIRRRPPRLPRPRPRPFSTPRP | -0.0277
RRIRYRPPRLPRPRPRPYTWPRP | -0.571
RRIRIRPPRLPRPRPRPAVVPRP | -0.0892
RRIRIRPPRLPRPRPRPIFAPRP | -0.0891
RRIRVRPPRLPRPRPRPYEEPRP | -0.128
RRIRWRPPRLPRPRPRPRWWPRP | 0.0648
RRIRMRPPRLPRPRPRPKYSPRP | -0.326
RRIRNRPPRLPRPRPRPLGHPRP | -0.262
RRIRERPPRLPRPRPRPWKFPRP | -0.301
RRIRNRPPRLPRPRPRPRFRPRP | 0.0503
RRIRWRPPRLPRPRPRPYCNPRP | -0.455
RRIRLRPPRLPRPRPRPKAMPRP | -0.023
RRIRDRPPRLPRPRPRPSEKPRP | -0.0166
RRIRWRPPRLPRPRPRPFVCPRP | -0.108
RRIRNRPPRLPRPRPRPSMRPRP | 0.000173
RRIRLRPPRLPRPRPRPAPIPRP | 0.0892
RRIRERPPRLPRPRPRPYSDPRP | -0.308
RRIRSRPPRLPRPRPRPPQWPRP | 0.504
RRIRERPPRLPRPRPRPWKNPRP | -0.0553
RRIRWRPPRLPRPRPRPWHKPRP | -0.0356
RRIRERPPRLPRPRPRPVFEPRP | -0.151
RRIRTRPPRLPRPRPRPFQNPRP | 0.0326
